Assay results reported in publication PMC10995199, “Architecture and regulation of filamentous human cystathionine beta-synthase” (Nature Communications, 2024).

T1: full-length human cystathionine beta-synthase, N-terminal His-tag removed during purification (CBS^FL) (human), P35520
T1 chain: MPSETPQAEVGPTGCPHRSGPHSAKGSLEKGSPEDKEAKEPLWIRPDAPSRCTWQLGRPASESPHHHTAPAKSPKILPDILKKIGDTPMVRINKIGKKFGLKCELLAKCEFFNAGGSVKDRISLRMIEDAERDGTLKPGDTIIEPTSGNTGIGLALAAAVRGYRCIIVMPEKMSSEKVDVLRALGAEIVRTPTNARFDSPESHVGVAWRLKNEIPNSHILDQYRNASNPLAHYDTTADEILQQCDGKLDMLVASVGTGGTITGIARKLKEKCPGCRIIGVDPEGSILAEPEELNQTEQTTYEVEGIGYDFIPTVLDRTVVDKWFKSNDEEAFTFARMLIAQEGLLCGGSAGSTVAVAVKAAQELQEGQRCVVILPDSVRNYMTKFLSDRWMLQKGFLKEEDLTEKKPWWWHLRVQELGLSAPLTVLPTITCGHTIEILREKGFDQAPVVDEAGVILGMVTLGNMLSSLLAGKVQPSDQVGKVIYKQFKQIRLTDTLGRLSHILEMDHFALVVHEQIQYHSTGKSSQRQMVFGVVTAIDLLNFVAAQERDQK

T2: full-length human cystathionine beta-synthase with a permanent C-terminal His-tag (CBS^FL-CHis) (human), P35520
T2 chain: T1 chain

B1: full-length human cystathionine beta-synthase, N-terminal His-tag removed during purification (CBS^FL), P35520 1-551 (enzyme)
chain: T1 chain
B2: full-length human cystathionine beta-synthase with a permanent C-terminal His-tag (CBS^FL-CHis), P35520 1-551 (enzyme)
chain: T1 chain

Assays:
Conditions in all cases: remark: other sources report otherwise
[1] = biological target: T1, full-length human cystathionine …; assay: native gel or EMSA; Coomassie-stained clear-native and blue-native PAGE; 25 mM HEPES pH 7.5, 200 mM NaCl, 2.0 mM TCEP; 1.0 mg/ml, 8.0 µg protein; without or with 1 mM SAM (no apparent effect on the oligomeric status); self-association
[2] = biological target: T1, full-length human cystathionine …; assay: SEC; analytical Superose 6 Increase 10/300 GL; 25 mM HEPES pH 7.5, 500 mM NaCl, 0.5 mM TCEP, 5% glycerol; 250 µl loaded at 3.0 mg/ml; self-association
[3] = biological target: T2, full-length human cystathionine …; assay: as above

Binder	stoichiometry N [1]	stoichiometry N [2]	stoichiometry N [3]
B1	> 4	> 4	–
B2	–	–	> 4
